From patent publication US11612662B2, “Multi-arm polymeric prodrug conjugates of pemetrexed-based compounds” (priority 2010, dated 2023)

Key:
[1] = Single dose maximum tolerated dose study; format: in vivo, mice; settings: single intravenous dose
Experimental: Because of too much efficacy of daily dosing for ten days in a pilot xenograft study (likely due to the effects of repeated dosing), a single dose maximum tolerated dose study was conducted using a method similar to that provided in Example 3 in order to have a better dosing schedule for a comparative xenograft study.

[2] = tested on: xenograft; assay: In vivo xenograft study; parameters: species or system female athymic nu/nu mice; settings: as of day 26; intravenously, at 80% and at 50% of the single dose maximum tolerated dose
Experimental: Briefly, for run of the experiment, a previously untreated group of 8-12 week old mice was intravenously administered a test article prepared in saline and diluted to appropriate concentrations to allow administration volumes of a maximum of 20 mL/kg. Each compound of interest was tested twice: once at 80% of the maximum tolerated dose and once at 50% of the maximum tolerated (maximum tolerated doses calculated on the single dose maximum tolerated dose study).
Mice were observed daily for clinical signs and body weights were recorded daily (except on weekend days) then biweekly until the end of study. Dosing was terminated for any group in which mean weight loss exceeded 20% or >10% of animals died. Moribund animals were euthanized.

[3] = in vivo; settings: low folate diet; for Days of Deaths (s = surviving at study end): five mice listed singly; for tolerability of the dosage level: tolerated if treatment-related weight loss <20%; for Max. Mean Body Weight change during Rx (%): intravenously once each day for ten days; for % Rx Related Deaths / Day of Max. Mean Body Weight Loss (body weight nadir): once each day for ten days
Experimental: The purpose of this study was to determine the maximum tolerated dose for pemetrexed (PMX), Compound 20a (from Example 1), Compound 20b (from Example 1), Compound 20c (from Example 1), and Compound 20d (from Example 1) in female SCID mice fed a low folate diet. All compounds were administered intravenously, once each day, for ten consecutive days.
Calculations were made to provide “dose equivalents” between PMX, Compound 20a, Compound 20b, Compound 20c and Compound 20d, which “dose equivalents” along with the “actual dose” administered are provided in Table 2. All dosagese in this example are expressed in terms of “dose equivalents” and adjustments were made for excipients, salts and hydration state.
Female SCID mice (HsdIcr:Ha (ICR)-Prkdc-scid) were obtained from Harlan. They were seven weeks old on Day 1 of the experiment. The mice in Groups 1 and 2 were fed irradiated Rodent Diet 5053 (LabDiet™). The mice in Groups 3 through 19 were fed irradiated Folic Acid Deficient Purina TestDiet supplemented with 1% succinylsufathiazol from 14 days prior to dosing until 14 days after dosing was completed, at which time the study was terminated and the mice were then euthanized. All groups received drinking water ad libitum. Mice were housed in static cages in clean rooms that provide H.E.P.A filtered air into the environment at 100 complete air changes per hour. All treatments, body weight determinations, and tumor measurements were carried out in the environment. The environment was controlled to a temperature range of 70°±2° F. and a humidity range of 30-70%. […] Mice found in obvious distress or in a moribund condition were euthanized. The study was carried out in an AAALAC accredited facility.
Treatments began on Day 1. […] Mice in Groups 3 through 19 were fed irradiated Folic Acid Deficient Purina TestDiet with 1% Succinylsufathiazol for 14 days prior to dosing as well as throughout the entire experiment. All mice were dosed according to individual body weight on the day of treatment (0.2 ml/20 g).
Mice were weighed on each day of treatment and at least three times weekly thereafter. Individual body weights were recorded three times weekly. […] In this report, a dosage level is described as tolerated if treatment-related weight loss (during and two weeks after treatment) is <20%. Upon death or euthanasia, all mice were necropsied to provide a general assessment of potential cause of death and perhaps target organs for toxicity.

[4] = 3.75 mg/kg/inj dose equivalents

## 4-arm-PEG30k-γ-amide-Pemetrexed Conjugate [Compound 20c]
[1]; dose equivalents
  Single dose MTD: <40
[1]; tested dose (equiv) 40
  BWL (body weight loss): −19.6%
  day (of body weight loss): 9
  mean day of death: 12
  treatment-related deaths: 5
[1]; tested dose (equiv) 70
  BWL (body weight loss): −25.0%
  day (of body weight loss): 9
  mean day of death: 10.5
  treatment-related deaths: 2
[1]; tested dose (equiv) 95
  BWL (body weight loss): −27.1%
  day (of body weight loss): 7
  mean day of death: 9
  treatment-related deaths: 3
[1]; tested dose (equiv) 125
  BWL (body weight loss): −25.3%
  day (of body weight loss): 9
  mean day of death: 10.5
  treatment-related deaths: 2
[2]
  tumor volume compared with saline control: significantly less tumor volume than saline control
  tumor volume compared with the other articles tested: lowest tumor volumes of all articles tested
[3]; 1 mg/kg
  maximum treatment-related body weight loss: 4.8%
  time to recover lost body weight: 5.5 days
  tolerability of the dosage level: tolerated
[3]; 1 mg/kg/inj dose equivalents
  Days of Deaths (s = surviving at study end): s, s, s, s, s
  Max. Mean Body Weight change during Rx (%): −4.8%
  % Rx Related Deaths: 0%
  Day of Max. Mean Body Weight Loss (body weight nadir): 10
[3]; 3.75 mg/kg
  maximum treatment-related body weight loss: 1.4%
  time to recover lost body weight: 2.2 days
  tolerability of the dosage level: tolerated
[3]; [4]
  Days of Deaths (s = surviving at study end): s, s, s, s, s
  Max. Mean Body Weight change during Rx (%): −1.4%
  % Rx Related Deaths: 0%
  Day of Max. Mean Body Weight Loss (body weight nadir): 5
[3]; 15 mg/kg
  maximum treatment-related body weight loss: 18.8%
  time to recover lost body weight: not recovered prior to study termination
  tolerability of the dosage level: toxic
[3]; dosage levels found tolerated
  common clinical signs: Rough pelage
  necropsy findings: no significant findings
[3]; dosage levels found toxic
  necropsy findings: Necrotic intestines
[3]; 15 mg/kg/inj dose equivalents
  Max. Mean Body Weight change during Rx (%): −22.0%
  % Rx Related Deaths: 20%
[3]; 15 mg/kg/inj dose equivalents, 15 mg/kg
  Day of Max. Mean Body Weight Loss (body weight nadir): 19
